Experiment: Storage of hirudin in water, chromatographic analysis (Mono Q / ProPac)
Assay type: physicochemical
Settings: FIG. 2
Protocol: MONO Q METHOD: The stability of hirudin can be analysed by FPLC ([…] protein liquid chromatography) using a Mono-Q column (10 μm particle size, 5.0×50 mm, purchased from Pharmacia). The method was developed by Ciba-Geigy, Basel. Solvent A is 50 mM HCOONH4 in H2 O pH 4.5, and solvent B is 50 mM HCOONH4 in H2 O , pH 3.5. The elution is performed at room temperature (22° C.) using a flow rate of 1.4 ml/min. The binary elution for the first 5 min is at constant flow of 20% B, followed by a linear gradient from 20% B to 75% B over 10 minutes, and 2 minutes at 100% B after which the column is equilibrated for 2 min at the starting conditions of 20% B.
PROPAC METHOD: A recently published method for hirudin analysis can also be used [Tuong, A., Maftouh, M., Ponthus, C., Whitechurch, O., Roitsch, C., and Picard, C. (1992) "Characterisation of the Deamidated Forms of Recombinant Hirudin" Biochemistry 31, 8291-8299]. In this method a ProPac PAl anion-exchange column (250×4 mm i.d.) from Dionex is used. Solvent A is 20 mM Tris-HCl, pH 7.0 and solvent B is 0.5M NaCL in A. Isocrastic elution for 5 min at 28% is followed by a linear gradient from 28%B to 54%B over 60 min at a flow rate of 1.3 ml/mim.
The two peaks which elute in the front of the main peak (FIG. 1) are referred to as Q4 and Q5 peaks, respectively. […] The exact nature of the products which produce those extra peaks is not known.

hirudin
change of chromatogram on storage in water: increase of the Q4 and Q5 peaks with time

— patent US5472938A, “Pharmaceutical depot compositions containing hirudin” (Ciba-Geigy Corporation, priority 1993, dated 1995)
